Here are results for one substance from patent US20190375821A1.

For this test, the target named is VEGF165 (UniProt P15692). The test is described as follows: ELISA, plate coated with VEGF, anti-human Fc-HRP detection. For orientation: An ELISA detects its analyte on a solid surface through an enzyme-linked reagent.
VEGF165, sequence (P15692 other isoform, or with tags, fused parts or gaps limits assumed): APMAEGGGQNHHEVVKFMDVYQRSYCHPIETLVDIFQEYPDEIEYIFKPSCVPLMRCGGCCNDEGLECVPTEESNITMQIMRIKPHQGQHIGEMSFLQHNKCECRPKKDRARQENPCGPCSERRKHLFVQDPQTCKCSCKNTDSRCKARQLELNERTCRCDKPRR

With VEGF-trap (aflibercept) (Fc fusion), the Kd came to 0.5 pM.

As a reminder, the Kd is the equilibrium constant for the complex coming apart. Read a high Kd as lower affinity.
